Results on three sequences are retold here after US20180346531.

Series [1] has as its system S1-KRAB ATF (synthetic construct). The series can be described thus: cell_activity. Particulars: luciferase reporter with target site in HEK293T, p<0.05. In general terms: Reporter assays use an easily measured gene product as a stand-in for the process of interest.
For series [2], the system named is S1 zinc finger array (six-finger ATF) (synthetic construct). The series can be described thus: EMSA. Particulars: ZBA (10 mM Tris pH 8.5, 90 mM KCl, 1 mM MgCl2, 100 uM ZnCl2), 0.05% NP-40, 0.1 mg/mL BSA, glycerol, room temperature 1.5 h; apparent KD, average of at least …. On the technique in general: Mobility shift assays separate free from complexed probe on a gel.

The subject of series [3] is SR71-KRAB ATF (synthetic construct). The series can be described thus: cell_activity. Particulars: luciferase reporter with target site in HEK293T, p<0.05.

Where only a bound is given, the exact number is not on record here.

For “CATGCGTAGGGAGCCGCG (double strand) [S1 target site (18 bp; Snurf promoter)]”, the activity (fold repression) in series [1] is > 5.
As for “CCTCTTCGCTATTACGCCAGCCATGCGTAGGGAGCCGCGGAACGTTCGATCGTACTCGAGTCAGGGTG (double strand) [S1 EMSA target]”, in series [2], the Kd was 3 nM.
On to “GCAGGACCTGCTGCACTG (double strand) [SR71 target site (18 bp)]”, for which the activity (fold repression) in series [3] was > 5.
